# Test results as given in patent US7371842B2, “Polynucleotide encoding a 35 KDA protein thats binds to WF00144” (Astellas Pharma Inc., priority 2002, dated 2008).
# B1: Human 35 kd protein: novel 35 kd protein, amino acid sequence SEQ ID NO: 2, expressed in E. coli and purified (protein, listed as Homo sapiens)
# chain: MLGPQVWSSVRQGLSRSLSRNVGVWASGEGKKVDIAGIYPPVTTPFTATAEVDYGKLEENLHKLGTFPFRGFVVQGSNGEFPFLTSSERLEVVSRVRQAMPKNRLLLAGSGCESTQATVEMTVSMAQVGADAAMVVTPCYYRGRMSSAALIHHYTKVADLSPIPVVLYSVPANTGLDLPVDAVVTLSQHPNIVGMKDSGGDVTRIGLIVHKTRKQDFQVLAGSAGFLMASYALGAVGGVCALANVLGAQVCQLERLCCTGQWEDAQKLQHRLIEPNAAVTRRFGIPGLKKIMDWFGYYGGPCRAPLQELSPAEEEALRMDFTSNGWL
# Assay: Aldol cleavage reaction of fructose 1,6-bisphosphate, coupled with TIM/G3PDH, NADH 340 nm
# Format: biochemical
# Conditions: F1,6P2 cleaved, 37° C., 30 minutes, pH 8.0
# Description: The aldolase activity of the human 35 kd protein was determined as follows, according to the method described in a reference (Novel Biochemistry Experiment Lectures, Vol. 15, Metabolism Abnormality, p. 111, edit. Biochemical Society of Japan, publish. Tokyo Kagaku Dojin-sha, Sep. 22, 1992):
# Conjugated with triose phosphate isomerase (TIM) and glycerol 3-phosphate dehydrogenase (G3PDH), the aldol cleavage reaction of fructose 1,6-bisphosphate (F1, 6P2) with the 35 kd protein was determined with NADH.
# A reaction liquid having the composition mentioned below was prepared, and reacted at 37° C. for 30 minutes. The enzymatic reaction was monitored through the reduction in the 340 nm absorbance owing to the oxidation of NADH in the reaction liquid. The enzymatic reaction was indicated by the number of mols of F1, 6P2, per mg of the protein, cleaved within 1 minute (μmol/min/mg protein).
# Reaction liquid 200 μl: 0.25 mM tris HCl buffer (pH 8.0), 0.15 M NaCl, 0.5 mM F1, 6P2 (from Sigma), human 35 kd protein, human liver TIM (500 μg/ml), rabbit skeletal muscle G3PDH (8 units/ml, from Sigma), 0.3 mM NADH (from Nakarai).
# For comparison, a commercial product aldolase, Sigma's rabbit skeletal muscle aldolase (A-type aldolase), and an enzyme-free system were tested in the same manner.
molecule,measurement,value
B1,Aldolase Activity (μmol/min/mg protein),0.0034 μmol/min/mg protein
